According to paper doi:10.1101/2023.04.01.535202, “Three small partner proteins facilitate the type VII-dependent secretion export of an antibacterial nuclease” (bioRxiv, 2023):

Molecular target: the molecule itself
Assay: cross-linking; purified complex from the major SEC peak at 0.5 mg/ml in 50 mM HEPES pH 7.5, 150 mM NaCl, 0.1% glutaraldehyde for 30 minutes at room temperature, quenched with tris; SEC and SDS-PAGE

B1: EsaDEG complex (complex)
chain 1: MTKDIEYLTADYDNEKSSIQSVIDAIEGQDFLDVDTTMDDAVSDVSSLDEDGAISLTSSVVGPQGSKLMGYYQNELYDYASQLDSKMKEIIDTPFIEDIDKAFKGITNVKLENILIKNGGGHGRDTYGASGKIAKGDAKKSDSDVYSIDEILKSDQEFVKVIDQHYKEMKKEDKKLSKSDFEKMMTQGASCDYMTVAEAEELEEQKKKEEAIEIAALAGMVVLSCINPVAGAVAIGAYSAYSAANAATGKNIVTGRKLSKEERIMEGLSLIPLPGMGFLKGAGKSLMKLGFKGGEKFAVKTGLQKTMQQAVSRISPKMGMMKNSVLNQSRNFAQNTHVGQMLSNMRGQATHTVQQSRNWIGQQAQNVKRIVNNGLDKEIAHPFKQQLAPAGMGGIKFAETTTLRNMGQNIKRAVTPQNHVTHGPKDSMVRSEGKHSISSHEMNSSKYVESPNYTKVEFGEHYARLRPKKLKANIEYTTPTGHIYRTDHKGRIKEVYVDNLSLKDGDRNSHAQRTVGGEDRLPDDDGGALIARMFGGSKDIDNLVAQSKFINRPFKEKGHWYNLEKEWQEFLNSGKEVKNIKMEVKYSGNSQRPTIFKVEYEINGERNIRRILNK
chain 2: MKDVKRIDYFSYEELTILGGSKLPLVNFELFDPSNFEEAKAALIEKELVTENDKLTDAGFKVATLVREYISAIVNIRINDMYFAPFSYEKDEYILLSRFKNNGFQIRIINKDIAWWSIVQSYPLLMRQEKSNDWDFKQIDDETLENLNNESIDTIGRVLEIEIYNHQGDPQQSLYNIYEQNDLLFIRYPLKDKVLNVHIGVINTFIRELFGFDTDENHINKAEE
chain 3: MTFEEKLSKIYNEIANEISSMIPVEWEKVYTMAYIDDGGGEVFFNYTKPGSDDLNYYTNIPKEYNISVQVFDDLWMDLYDLFEELRDLFKEEDLEPWTSCEFDFTREGELKVSFDYIDWINSEFGQIGRQNYYKYRKFGILPETEYEINKVKEIEQYIKELEE
notes: EsaD nuclease toxin of S. aureus, as m1; EsaE of S. aureus, as m2; EsaG of S. aureus, as m3; Cross-linked with glutaraldehyde for the experiment on dimers-of-trimers and for cryo-EM; also called EsaDEG trimer; not shown: His6, C-terminal, kept; copies: + +
With B1 the “stoichiometry N” value was 2.

B2: EsaDEG-EsxBCD complex (complex)
chain 1: B1 chain 1
chain 2: B1 chain 2
chain 3: B1 chain 3
chain 4: MGGYKGIKADGGKVDQAKQLAAKTAKDIEACQKQTQQLAEYIEGSDWEGQFANKVKDVLLIMAKFQEELVQPMADHQKAIDNLSQNLAKYDTLSIKQGLDRVNP
chain 5: MNFNDIETMVKSKFKDIKKHAEEIAHEIEVRSGYLRKAEQYKRLEFNLSFALDDIESTAKDVQTAKSSANKDSVTVKGKAPNTLYIEKRNLMKQKLEMLGEDIDKNKESLQKAKEIAGEKASEYFNKAMN
chain 6: MTLSGKISVKAETIAHVVKELESISQKYDEIAQNFGKIAQLNYYSSEKAAHSMENGYSSAATVISGLKGPLSTLGGGVMNSAQKFFEADEHWGTEFAKLYYNIEG
notes: EsaD nuclease toxin of S. aureus, as m1; EsaE of S. aureus, as m2; EsaG of S. aureus, as m3; EsxB of S. aureus, as m4; EsxC of S. aureus, as m5; EsxD of S. aureus, as m6; Cross-linked with glutaraldehyde for the experiment on dimers-of-hexamers and for cryo-EM; also called EsaDEG-EsxBCD hexamer; EsxBCD-EsaDEG complex; not shown: His6, C-terminal, kept; twin-strep, C-terminal, kept; copies: + + + …
In the case of B2, the “stoichiometry N” value is reported as 2.
